Assay results reported in US20260209364A1 (NB HEALTH LABORATORY, published 2026).
Residue numbers refer to the chain shown, from its start.

B1: humanized anti-CCR7 antibody NB007-01 (antibody, human IgG1, kappa, V domains shown)
VH: EVQLVQSGPEVVKPGASVKLSCKASGYSFTGYYMHWVKQAPGQGLEWIGRVNPNQGGTSYNKKFKVRVTITVDRSISTAYMEFSRLRSDDTVVYYCARSESNNFYAMDYWGQGTSVTVSS
VL: DIVMTQSPLSLSVTPGQPASISCRSSQSLVHSNGNTYLCWYLQKPGQSPQLLIYRVSNKFSGVPDRFSGSGSGTDFTLKISRVEAEDVGVYYCFQGSHVPHTFGQGTKVEIKR
B2: humanized anti-CCR7 antibody NB007-02 (antibody, human IgG1, kappa, V domains shown)
VH: B1 VH with I70L
VL: B1 VL with K59R
B3: chimeric anti-CCR7 antibody VH0/VL0 (antibody, human IgG1, kappa, V domains shown)
VH: EVQLQQSGPDLVKPGASVKISCKASGYSFTGYYMHWVKQSHGKSLEWIGRVNPNNGGTSYNKKFKVKAILTVDRSSSTAYMEFRSLTLEDSAVYYCARSESNNFYAMDYWGQGKSVTVSS
VL: DILMTQTPLSLPVSLGDQVSISCRSSQSLVHSNGNTYLCWYLQKPGQSPKLLIYRVSNRFSGVPDRFSGSGSGTDFTLKISRVEAEDLGVYFCFQGSHVPHTFGSGTKLEIKR
B4: humanized anti-CCR7 antibody NB007-03 (antibody, human IgG1, kappa, V domains shown)
VH: B1 VH with Q55N, I70L
VL: B1 VL with S7T, P15L, K59R, Q105S

Legend:
[1] = molecular target: T1, human CCR7 (human, UniProt P32248 25-378); assay: cell-based or functional assay
T1 sequence: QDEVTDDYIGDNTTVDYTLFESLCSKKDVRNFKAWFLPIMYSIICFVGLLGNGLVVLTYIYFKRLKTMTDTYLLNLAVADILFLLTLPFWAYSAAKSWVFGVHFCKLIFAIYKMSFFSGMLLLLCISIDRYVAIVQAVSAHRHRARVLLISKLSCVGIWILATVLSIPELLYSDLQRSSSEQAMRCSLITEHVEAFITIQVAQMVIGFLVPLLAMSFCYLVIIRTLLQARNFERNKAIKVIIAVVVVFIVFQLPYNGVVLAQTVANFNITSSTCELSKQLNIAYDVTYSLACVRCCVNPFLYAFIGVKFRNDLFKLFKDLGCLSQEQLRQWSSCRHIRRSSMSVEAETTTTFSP

[2] = molecular target: T1, human CCR7; assay: cell-based or functional assay; remark: listed apart in the source

Binder	IC50, inhibition of CCL19-dependent cell migration of Granta-519 cells [1]	IC50, inhibition of CCL19-induced intracellular Ca2+ signaling in hCCR7 gene-transfected cells [1]	IC50, inhibition of CCL21-induced intracellular Ca2+ signaling in hCCR7 gene-transfected cells [1]	half maximal inhibitory concentration (IC50), CCL21-induced intracellular Ca2+ signaling in MJ cells [1]	IC50 (nM), inhibition of intracellular Ca2+ signaling in human CCR7 gene-transfected cells stimulated with 5x10^-8 M CCL21 [2]
B1	25.5 nM	21.4 nM	17.8 nM	14.8 nM	18.2 nM
B2					16.4 nM
B3					16.2 nM
B4					12.5 nM
